Test [1] deals with ECF module (EcfA_K122C, EcfA', EcfT) of the C-sensor, cysteine-less background, fluorophore-labelled (Lactobacillus delbrueckii). Description: FRET or BRET; single-molecule FRET, TIRF; labelled complex in immobilised liposomes (protein to lipid 1:10.000) with 10 mM Mg-ATP outside (or on both sides), with or without 10 µM vitamin B12 in the lumen; 50 mM KPi pH 7.5, 150 mM NaCl; 90 s recordings, 200 ms frames. A general note: In BRET a luciferase serves as donor, and the signal depends on an acceptor being close.

The target is the same in test [2]. Put plainly: FRET or BRET; single-molecule FRET, TIRF; labelled complex reconstituted in liposomes (E. coli polar lipids:PC:DOPE-biotin, protein to lipid 1:10.000) immobilised by biotin-neutravidin; 50 mM KPi pH 7.5, 150 mM NaCl; apo, also with Mg-AMP-PNP, Mg-ADP or 10 µM vitamin B12 alone; 90 s recordings, 200 ms frames.

Where “and” joins values, the source holds several entries; their conditions need not be identical. Identical values can stand only once.

Take “CbrT_A182C (S-component of the C-sensor, cysteine-less background, fluorophore-labelled) (natural protein)”: in test [1], the half-life to the first dissociation event after ATP addition (ATPout + B12in) was 7 s; the half-life to the first dissociation event after ATP addition (ATPout) is 10 s; the mean dwell time of the associated state (10 mM Mg-ATP outside; with or without vitamin B12, not told which) was 7.9 s and 8.7 s; the mean dwell time of the dissociated state (10 mM Mg-ATP outside, with and without vitamin B12) was found to be 20 s. In test [1], the percent of dynamic traces (association/dissociation transitions), 10 mM Mg-ATP outside turned out to be 22.1%; the percent of dynamic traces (association/dissociation transitions), ATP outside and 10 µM vitamin B12 in the lumen is 18.7%; the percent of dynamic traces (association/dissociation transitions), Mg-ATP on both sides of the membrane worked out at 13.2%; the percent of traces static at the low-FRET value 0.08 (dissociated), 10 mM Mg-ATP outside was found to be 19.6%. The substance also returned a percent of recorded traces with a dissociation (apo and AMP-PNP conditions) in test [2] of 1%.

For the origin of these results see paper PMC12075633.
